In US20220153834A1 (UNIVERSITY HEALTH NETWORK, published 2022):
Substitutions are numbered along the chain they refer to.

B1: anti-TSG-6 antibody of SEQ ID NO: 1 and SEQ ID NO: 2 (first entry of Table 1, clone name not printed) (antibody, IgG1, V domains shown)
VH: QVRLQQSGAELAKPGASVKLSCKASGYTFTSYWMHWVKQRPGQGLEWIGYIIPSSGYTKNKQNFKDKATLTADKSSSTAYMQLSNLTYEDSAVYSCARSDGSYPYYFDYWGQGTTLTVSS
VL: ENVLTQSPAIMSASPGEKVTMTCSASSSVSYMHWYQQKSSTSPKLWIYDTSKLASGVPGRFSGSGSGNSYSLTISSMEAEDVATYYCFQGSGYPLTFGSGTKLEIKR
B2: 3E1 (antibody, V domains shown)
VH: QVQLQQSGAELAKPGASVRLSCQASGYTFTSYWMHWVKQRPRQGLEWIGYIIPSSGYTKCHQKFKDKATLTADKSSSTAYMQLSSLTYEDSAVYYCARSTSGYPYYFDSWGQGTTLTVSS
VL: B1 VL with K18R, S26T, Y31F, G92W, S99A, I105L
notes: Entries as printed include a leader and part of the constant region
B3: 5A5 (antibody, V domains shown)
VH: B2 VH with S31T, T58S, S77N, Y80S, S109Y
VL: B1 VL with S26T, G92W, S99A, I105L
notes: as for B2
B4: 1A9 (antibody, V domains shown)
VH: EVQLQQSGPELVKPGASVKISCKASGYTFTDYYMNWVKQSHEKSLEWIGDINPNNGGTSYNQKFMGKATLTVDKSSRTAYMELRSLTSEDSTVYYCARWGIYDRFTYWGQGTLVSVSA
VL: DIKMTQSPSSMYASLGERVTIACKASQDINSFLSWFQQKPGKSPKTLIYRANRLVDGVPSRFSGSGSGQDYSLTISSLEYEDMGIYYCLQYDEFPLTFGAGTKLELKR
notes: as for B2
B5: 1D7 (antibody, V domains shown)
VH: B4 VH with E42G, S59T, M65K, R77S, T92A, Y102F, L113V, S115T
VL: B4 VL with L15R, A22T
notes: as for B2
B6: 3E4 (antibody, V domains shown)
VH: QVQLQQPGAELVKPGASVKLSCKASGYTFTSQWMHWVKQRPGQGLEWIGMIHPNSGSTNNNEKFKSKATLTVDKSSSTAYMQLSSLTSEDSAVYYCTRWAMDYWGQGTSVTASS
VL: DVVMTQTPLSLPVSLGDLASISCRSSQSLVHSNGNTYLHWYLQKPGQSPKLLIFKVSNRFSGVPDRFSGSGSGTDFTLKISRVEAEDLGVYFCSQSTHVPWTFGGGTKLEIKR
notes: as for B2
B7: 4F1 (antibody, V domains shown)
VH: EVKLVESGGGLVQPGGSLSLSCAASGFTFTDYYMSWVRQPPGKALEWLGFIRHKAKGYTAEYSASVKGRFTISRDNSQSILYLQMNALRAEDSATYYCARLYYYGSPHWYFDVWGTGTTVTVSS
VL: QIVLTQSPAIMSASPGEKVTMTCSASSSVSYMHWYQQKSGTSPKRWIYDTSKLASGVPARFSGSGSGTSYSLTISSMEAEDAATYYCQQWSSNPPTFGSGTELEIKR
notes: as for B2
B8: 3C6 (antibody, V domains shown)
VH: EVQLQQSGPELVKPGASVKIPCKASGYTFTDYNMDWVKQSHGESLEWIGDIYPNNGGTIYNQKFKDKATLTVDKSSSTAYMELRSLTSEDNAVYYCARKTGTGFDYWGQGTTLTVSS
VL: QIVLSQSPAILSASPGEKVTMTCRARSSVIYMHWYQQKPGSSPKPWIYATFNLASGVPARFSGSGSGTSYSLTISRVEAEDAATYYCQQWSSNPPTFGSGTKLEIKR
notes: Entries as printed include a leader and part of the constant region; also called anti-TSG-6 antibody 3C6
B9: 5B4 (antibody, V domains shown)
VH: QVQLQQPGAELVKPGASVKLSCKASDYTFTNYWMHWVKQRPGRGLEWIGRIDPSSGGAKYNEKFKSKATLTVDKPSSTAYMEFSSLTSEDSAVYYCVRSRYDYDGWFAYWGLGTLVTVSA
VL: DIVMTQAAPSVPVTPGESVSISCRSSKSLLHSNGNTYLYWFLQRPGQSPQLLIYRMSNLASGVPDRFSGSGSGTAFTLRISRVEAEDVGVYYCMQHLEYPFTFGGGTKLEIKR
notes: Its printed constant part differs from that of the other IgG1 entries; Entries as printed include a leader and part of the constant region
B10: 4E4 (antibody, V domains shown)
VH: QVQLQQPGAELVKPGASVKLSCKASGYTFTSYWMHWVKQRPGQGLEWIGMIHPNSGSTNYNEKFKNKATLTVDKSSSTAYMQLSSLTSEDSAVYYCAPRMFDDYDDYWGQGTTLTVSS
VL: QIVLTQSPAIMSASLGERVTMTCTASSSVSSSYLHWYQQKPGSSPKLWIYSTSNLASGVPVRFSGSGSGTSYSLTISRMEAEDAATYYCHHYHRSPYTFGGGTKLEIKR
notes: as for B2
B11: 5D9 (antibody, V domains shown)
VH: QVQLQQSGAELARPGASVKLSCKASDDTFINYGINWVKQRTGQGLEWIGETFPSNGNTFYNEKFKGKATLTADRSSSTTYMELRSLTSEDAAVYFCARHSNLPYFDHWGQGSTLTVSS
VL: DIVMTQSPSSLSVSAGEKVTMSCKSSQSLLNSGNQKNYLAWYQQKPGQPPKLLIYGASTRESGVPERFTGSGSGTDFTLTISSVQAEDLAVYYCQNDHSYPFTFGGGTNLEIKR
notes: as for B2

The binders below were run against T1, Recombinant human TSG-6 (R&D Biosystems, catalog #2104-TS) (human, UniProt P98066 18-277) (assay: ELISA of hybridoma supernatants on recombinant human TSG-6).
T1 construct: Bought protein; also called hTSG-6; Tumor necrosis factor-inducible gene 6 protein
Experimental: (§1) Mouse antibodies directed against mouse TSG-6 protein (mTSG-6) were generated using conventional mouse monoclonal antibody techniques. Briefly, mice (strain SJL/J) were inoculated with KLH-coupled recombinant mouse TSG-6 (R&D Biosystems, catalog #2326-TS). After boosting, antibody titers were determined by ELISA, using a non-relevant His6-tagged protein as a control. Mice selected for fusion were sacrificed and hybridoma fusion was performed using the P3X63Ag8.653 murine myeloma cell line as a fusion partner. Clones were isolated by limiting dilution and selected by ELISA of hybridoma supernatants. Recombinant human TSG-6 (R&D Biosystems, catalog #2104-TS) was used as a substrate for ELISA assays thus facilitating the selection of human- and mouse-cross reactive clones (the two proteins are 92% identical at the amino acid level). Hybridoma mRNA was transcribed to cDNA and amplified by 5′-rapid amplification of cDNA ends (RACE). PCR products were cloned into an appropriate sequencing vector and sequenced by the dideoxy Sanger method. Multiple copies were sequenced to verify the clonality of each clone. Translated protein sequences were entered into the NCBI IgBLAST search tool (Ye, J., et al., 2013, Nucleic Acids Res. 41, W34-40) to identify CDRs.

T1 sequence (P98066 18-277 limits assumed): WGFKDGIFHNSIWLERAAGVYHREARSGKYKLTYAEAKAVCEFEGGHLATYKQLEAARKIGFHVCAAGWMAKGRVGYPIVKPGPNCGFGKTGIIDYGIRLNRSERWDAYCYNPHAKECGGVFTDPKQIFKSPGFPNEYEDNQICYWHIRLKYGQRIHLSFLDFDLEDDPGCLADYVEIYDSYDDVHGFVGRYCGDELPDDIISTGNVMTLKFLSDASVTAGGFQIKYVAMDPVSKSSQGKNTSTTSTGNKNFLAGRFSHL

Binding result, binds:
B1
B2
B3
B4
B5
B6
B7
B8
B9
B10
B11

Each binder was assayed against T2, Recombinant mouse TSG-6 (R&D Biosystems, catalog #2326-TS) (mouse, UniProt O08859 18-275) (assay: hybridoma raised against mouse TSG-6; clone selection by ELISA).
T2 construct: Bought protein, used KLH-coupled as the immunogen; also called mTSG-6
Experimental: as §1

T2 sequence (O08859 18-275 limits assumed): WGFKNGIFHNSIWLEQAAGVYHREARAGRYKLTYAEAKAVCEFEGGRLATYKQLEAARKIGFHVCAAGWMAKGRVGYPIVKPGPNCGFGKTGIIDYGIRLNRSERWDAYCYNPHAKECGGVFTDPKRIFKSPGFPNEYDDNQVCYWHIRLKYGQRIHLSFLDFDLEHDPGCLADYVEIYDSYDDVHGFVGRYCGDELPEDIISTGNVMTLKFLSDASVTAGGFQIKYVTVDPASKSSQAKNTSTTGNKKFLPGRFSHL

Binding result, binds:
B1
B2
B3
B4
B5
B6
B7
B8
B9
B10
B11
